Test results as given in patent US20220340673A1 (HARBOUR BIOMED SUZHOU, published 2022).

Tests used:
[1] = target: T1, human BCMA on cells (HEK293T/huBCMA; NCI-H929) (human, UniProt Q02223 1-184); test: FACS on NCI-H929 cell line [B]
T1 construct: whole, on cells; also called human BCMA molecules on NCI-H929 cell line
T1 sequence (looked up): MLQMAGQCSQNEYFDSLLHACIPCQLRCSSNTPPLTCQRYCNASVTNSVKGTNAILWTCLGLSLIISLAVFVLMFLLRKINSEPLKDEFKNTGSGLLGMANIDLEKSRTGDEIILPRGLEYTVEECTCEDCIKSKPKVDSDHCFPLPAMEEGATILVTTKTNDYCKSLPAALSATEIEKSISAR
Procedure: To study the binding activity of the BCMA arm of the BCMA×CD3 bispecific antibody to human BCMA, NCI-H929 cell line with highly expressed BCMA was used for binding experiments with human BCMA at cellular level. Briefly, NCI-H929 cell suspensions were collected. The cell density was adjusted to 1×10⁶ cells/mL, and the cells were inoculated in 96 well V-bottom plates at 100 μL cells/well (Corning, Cat#: 3894), followed by the addition of test antibodies at 100 μL/well, which is gradient diluted at 3 folds of the concentration with 2 folds of the final concentration. Cells were incubated at 4° C. for 2 hours in the dark. Afterwards, cells were washed twice with 100 μL/well of pre-cooled PBS, centrifuged at 500 g for 5 min at 4° C., and followed by discarding the supernatant. 100 μL/well of fluorescent secondary antibody (Alexa Fluor 488-conjugated AffiniPure Goat Anti-Human IgG, Fcγ Fragment Specific, Jackson, Cat#:109-545-06, 1:500 dilution) was added and incubated at 4° C. for 1 hour in the dark. Cells were washed twice with 100 μL/well of pre-cooled PBS, centrifuged at 500 g, 4° C. for 5 min, and followed by discarding the supernatant. Finally, the cells were resuspended with 200 μL/well of pre-cooled PBS, and the fluorescence luminescence signal values were read by BD FACS CANTOII.

[2] = target: T2, cynomolgus monkey CD3 on cynomolgus monkey T cells (cynomolgus monkey, UniProt Q95LI5 22-198); test: FACS on cynomolgus monkey T cells [B]
T2 construct: whole, on cells; CD3 complex on primary T cells
Procedure: To study the in vitro binding activity of the CD3 arm of the BCMA×CD3 bispecific antibody, human and cynomolgus monkey T cells were used for antibody binding experiments at cellular level. Briefly, the density of human and cynomolgus monkey T cells was adjusted to 1×10⁶ cells/mL, respectively. Cells were inoculated at 100 μL cells/well in a 96 well V-bottom plate (Corning, Cat#: 3894), followed by the addition of test antibodies at 100 μL/well, which is gradient diluted at 3 folds of the concentration with 2 folds of the final concentration. Cells were incubated at 4° C. for 1 hour in the dark. Afterwards, cells were washed twice with 100 μL/well of pre-cooled PBS, centrifuged at 500 g in 4° C. for 5 min, and followed by discarding the supernatant. 100 μL/fluorescent secondary antibody (Alexa Fluor 488-conjugated AffiniPure Goat Anti- Human IgG, Fcγ Fragment Specific, Jackson, Cat#:109-545-06, 1: 500 dilution) was added and incubated for 30 min at 4° C. in the dark. Cells were washed twice with 100 μL/well of pre-cooled PBS, centrifuged at 500 g, 4° C. for 5 min, and followed by discarding the supernatant. Finally, the cells were resuspended with 200 μL/well of pre-cooled PBS, and the fluorescence luminescence signal values were read by BD FACS CANTOII.

[3] = target: T1, human BCMA on cells (HEK293T/huBCMA; …); test: FACS on HEK293T cell strain overexpressing human BCMA [C]
From the text: To study the in vitro binding activity of the BCMA arm of the BCMA×CD3 bispecific antibody, HEK293T cell strain overexpressing human BCMA (HEK293T/huBCMA) and HEK293T cell strain overexpressing cynomolgus monkey BCMA (HEK293T/cynoBCMA) were used for antibody binding experiments at cellular level. Briefly, HEK293T/huBCMA cells and HEK293T/cynoBCMA cells were digested and resuspended with DMEM complete medium. The cell density of the two was adjusted to 1×10⁶ cells/mL, respectively. Cells were inoculated at 100 μL cells/well in a 96 well V-bottom plate (Corning, Cat#: 3894), followed by the addition of test antibodies at 100 μL/well, which is gradient diluted at 3 folds of the concentration with 2 folds of the final concentration. Cells were incubated at 4° C. for 1 hour in the dark. Afterwards, the cells were washed twice with 100 μL/well of pre-cooled PBS, centrifuged at 500 g for 5 min at 4° C., and followed by discarding the supernatant. 100 μL/well of fluorescent secondary antibody (Alexa Fluor 488-conjugated AffiniPure Goat Anti-Human IgG, Fcγ Fragment Specific, Jackson, Cat#: 109-545-06, 1:500 dilution) was added and incubated for 30 min at 4° C. in the dark. […] Finally, the cells were resuspended with 200 μL/well of pre-cooled PBS, and the fluorescence luminescence signal values were read by BD FACS CANTOII. […]

[4] = target: T3, cynomolgus monkey BCMA on cells (HEK293T/cynoBCMA) (cynomolgus monkey, UniProt A0A2K5UD97 1-183); test: FACS on HEK293T cell strain overexpressing cynomolgus monkey BCMA [B), (C]
T3 construct: whole, on cells
T3 sequence (A0A2K5UD97 entry or part of it): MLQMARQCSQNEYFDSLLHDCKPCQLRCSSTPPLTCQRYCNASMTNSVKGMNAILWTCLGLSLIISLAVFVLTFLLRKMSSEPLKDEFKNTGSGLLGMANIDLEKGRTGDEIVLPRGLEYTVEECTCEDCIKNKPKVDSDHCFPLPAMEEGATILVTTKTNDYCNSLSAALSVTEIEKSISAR

T2 sequence (Q95LI5 22-198): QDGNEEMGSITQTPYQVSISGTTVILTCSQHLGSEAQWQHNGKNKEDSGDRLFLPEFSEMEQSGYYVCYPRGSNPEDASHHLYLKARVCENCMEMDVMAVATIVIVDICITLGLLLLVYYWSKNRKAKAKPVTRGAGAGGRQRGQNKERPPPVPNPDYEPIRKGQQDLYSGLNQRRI

B1: positive control 2, PR002199 (anti-BCMA (TNB308902) x CD3 (TNB_F2B) bispecific antibody) (bispecific antibody, human IgG1, kappa, L234A L235A)
heavy 1: EVQLVESGGGLVQPGRSLRLSCAASGFTFDDYAMHWVRQAPGKGLEWVSGISWNSGSIGYADSVKGRFTISRDNAKNSLYLQMNSLRAEDTALYYCAKDSRGYGDYRLGGAYWGQGTLVTVSSASTKGPSVFPLAPSSKSTSGGTAALGCLVKDYFPEPVTVSWNSGALTSGVHTFPAVLQSSGLYSLSSVVTVPSSSLGTQTYICNVNHKPSNTKVDKKVEPKSCDKTHTCPPCPAPEAAGGPSVFLFPPKPKDTLMISRTPEVTCVVVDVSHEDPEVKFNWYVDGVEVHNAKTKPREEQYNSTYRVVSVLTVLHQDWLNGKEYKCKVSNKALGAPIEKTISKAKGQPREPQVYTLPPCREEMTKNQVSLWCLVKGFYPSDIAVEWESNGQPENNYKTTPPVLDSDGSFFLYSKLTVDKSRWQQGNVFSCSVMHEALHNHYTQKSLSLSPGK
light: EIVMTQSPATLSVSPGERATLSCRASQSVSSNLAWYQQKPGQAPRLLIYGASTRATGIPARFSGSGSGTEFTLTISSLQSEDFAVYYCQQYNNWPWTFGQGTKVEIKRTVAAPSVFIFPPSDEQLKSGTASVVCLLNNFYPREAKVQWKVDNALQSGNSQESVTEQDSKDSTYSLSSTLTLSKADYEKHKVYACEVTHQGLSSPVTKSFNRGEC
heavy 2: EVQLLESGGGLVQPGGSLRLSCAASGFTVSSYGMSWVRQAPGKGPEWVSGIRGSDGSTYYADSVKGRFTISRDNSKNTLYLQMNSLRAEDTAVYYCAKQGENDGPFDHRGQGTLVTVSSGGGGSEVQLLESGGGLVQPGGSLRLSCAASGFTVSSYGMSWVRQAPGKGPEWVSGIRGSDGSTYYADSVKGRFTISRDNSKNTLYLQMNSLRAEDTAVYYCAKQGENDGPFDHRGQGTLVTVSSASEPKSSDKTHTCPPCPAPEAAGGPSVFLFPPKPKDTLMISRTPEVTCVVVDVSHEDPEVKFNWYVDGVEVHNAKTKPREEQYNSTYRVVSVLTVLHQDWLNGKEYKCKVSNKALGAPIEKTISKAKGQPREPQVCTLPPSREEMTKNQVSLSCAVKGFYPSDIAVEWESNGQPENNYKTTPPVLDSDGSFFLVSKLTVDKSRWQQGNVFSCSVMHEALHNHYTQKSLSLSPGK
notes: Three chains: HC1 (anti-CD3 heavy), LC (anti-CD3 kappa light), HC2 (two tandem anti-BCMA VH, then Fc)
B1 was tested, and the EC50 [1] was 8.7 nM, the binding result [2] was “no binding (tested: about 300 nM)” and the EC50 [3] was 0.602 nM. B1: no binding (tested: 100 nM) [4].
